# Test results as given in publication PMC3680600 (Journal of the American Chemical Society, 2013).
# No end group written: not given here.
# Target: NF-κB Essential Modulator (NEMO), full-length recombinant human protein (residues 2–419) with five cysteine-to-alanine substitutions (human) (UniProt Q9Y6K9)
# Assay: fluorescence polarisation
# Conditions: not given
row,Substance,Kd [µM]
1,MBP-IKKβ-His(C716S) D738A (from UniProt O14920 701-745) (domain or fragment),> 0.87
2,MBP-IKKβ-His(C716S) L708A (from UniProt O14920 701-745) (domain or fragment),> 0.87
3,MBP-IKKβ-His(C716S) L719A (from UniProt O14920 701-745) (domain or fragment),> 0.87
4,MBP-IKKβ-His(C716S) L742A (from UniProt O14920 701-745) (domain or fragment),> 0.87
5,MBP-IKKβ-His(C716S) W739A (from UniProt O14920 701-745) (domain or fragment),> 0.87
6,MBP-IKKβ-His(C716S) W741A (from UniProt O14920 701-745) (domain or fragment),> 0.87
7,cleaved IKKβ peptide W739A (from UniProt O14920 701-745),35

# Continued, values first:
row,Kd [µM],Substance
1,21,cleaved IKKβ peptide L719A (from UniProt O14920 701-745)
2,11,cleaved IKKβ peptide D738A (from UniProt O14920 701-745)
3,9.3,cleaved IKKβ peptide W741A (from UniProt O14920 701-745)
4,5.5,cleaved IKKβ peptide L742A (from UniProt O14920 701-745)
5,2.7,cleaved IKKβ peptide L708A (from UniProt O14920 701-745)
6,0.015,WT MBP-IKKβ-His (from UniProt O14920 701-745) (domain or fragment)

# Target: full-length recombinant human NEMO (Homo sapiens, UniProt Q9Y6K9, C11A/C131A/C167A/C76A/C95A)
# Assay: Fluorescence anisotropy
# Conditions: KD2 competition assay vs KD1 direct binding assay
row,KD2 of unlabeled peptide relative to KD1 of FITC-IKKβ,Substance
1,~ 4 fold,PAKKSEELVAEAHNLCTLLENAIQDTVREQDQSFTALDWSWLQTE [IKKβ(701–745)]
